The values below come from publication doi:10.1101/2020.07.15.204859.

For this test, the target named is T1, S. Typhimurium 14028S HNS (STM14_2116) (Salmonella enterica serovar Typhimurium 14028S), P0A1S2.
T1 chain: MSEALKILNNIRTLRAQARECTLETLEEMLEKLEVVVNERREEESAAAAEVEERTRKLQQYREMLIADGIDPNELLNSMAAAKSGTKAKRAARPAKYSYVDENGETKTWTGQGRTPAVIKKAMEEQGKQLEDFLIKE
The test can be described thus: SEC. To be noted: remark: other sources report otherwise.

B1: S. Typhimurium 14028S HNS (STM14_2116), P0A1S2 1-137 (natural protein)
chain: MSEALKILNNIRTLRAQARECTLETLEEMLEKLEVVVNERREEESAAAAEVEERTRKLQQYREMLIADGIDPNELLNSMAAAKSGTKAKRAARPAKYSYVDENGETKTWTGQGRTPAVIKKAMEEQGKQLEDFLIKE
Molecule B1 had a stoichiometry N of 2.

The stoichiometry N is the number of molecules, sites or subunits per partner or assembly.
